In patent US10100120B2, “Antibody which specifically binds to human CRTH2” (KYOWA HAKKO KIRIN CO., LTD, priority 2015, dated 2018):

What was measured:
[1] = target: T1, mutated human CRTH2 with amino acid substitution (Homo sapiens, UniProt Q9Y5Y4, D177A/G178A/R179A); assay: Epitope analysis using CHO-S cells which express mutated human CRTH2 with amino acid substitution; assay type: binding; conditions: mutant D177A, G178A, and R179A; antibody 10 μg/mL; relative to wild-type = 100%
T1 construct: inserting genes encoding various mutants with amino acid substitution obtained by deleting termination codons; expressed in transfected cells; host or cells: CHO-S cells (Lifetechnologies), transient (phmAG1-MNLinker vector)
T1 sequence (Q9Y5Y4 1-395 D177A/G178A/R179A): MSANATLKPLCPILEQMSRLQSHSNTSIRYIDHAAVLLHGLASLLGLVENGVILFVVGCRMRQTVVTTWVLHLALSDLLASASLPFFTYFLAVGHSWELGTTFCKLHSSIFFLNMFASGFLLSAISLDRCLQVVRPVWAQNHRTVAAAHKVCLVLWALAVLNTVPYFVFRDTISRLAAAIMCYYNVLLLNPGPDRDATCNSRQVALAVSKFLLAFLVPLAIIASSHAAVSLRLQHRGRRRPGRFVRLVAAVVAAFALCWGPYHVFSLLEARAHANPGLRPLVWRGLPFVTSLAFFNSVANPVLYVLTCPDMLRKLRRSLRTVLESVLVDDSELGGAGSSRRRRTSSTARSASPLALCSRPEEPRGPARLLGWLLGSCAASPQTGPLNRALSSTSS
Method: (§1) A mutant with amino acid substitution expression vector obtained by partially substituting amino acid residues in an extracellular region with other amino acid residues among the amino acid sequences of human CRTH2 was prepared. Specifically, mutant with amino acid substitution expression vectors obtained by substitution of S2A; N4A; T6A and L7A; K8A, P9A, and L10A; P12A, L14A, and EISA; Q16E, R19H, and Q21R; H23A, S24A, and N25A; T26A, S27A, and I28A; D171A, T172A, and I173A; S174A, R175A, and L176A; D177A, G178A, and R179A; 1180A and M181A; Y183A, Y184A, and N185A; L187A, L188A, and L189A; N190A; P191A; G192A; P193A; D194A; R195A; D196A, and T198A; N275A, G277A, and L278A; P276A; P279A and L281A; P280A; or V282A, R283A, and R284A in the amino acid sequences represented by SEQ ID NO: 2 were respectively prepared. It should be noted that the above symbols in the amino acid substitution indicate [single letter code of an amino acid residue before substitution] [substitution position counting from the N terminal] [single letter code of the amino acid reside after substitution].
(§2) Azami-Green tag was added to the intercellular C terminal region by inserting genes encoding various mutants with amino acid substitution obtained by deleting termination codons to the restriction enzyme sites of BamHI and HindIII using phmAG1-MNLinker (MBL) as expression vectors.
(§3) The above-described vectors expressing mutants with amino acid substitution were prepared using 1) a method of entirely synthesizing gene sequences encoding mutants with amino acid substitution and inserting the gene sequences into a vector or 2) a method of performing site-specific mutation from a vector into which DNA which encodes the amino acid sequences of wild-type human CRTH2 represented by SEQ ID NO: 1 was inserted.
(§4) CHO-S cells (Lifetechnologies) were used for preparing mutated human CRTH2 with amino acid substitution expressing cell lines. Free style CHO expression medium (Invitrogen) containing 8 mM L-Glutamine (Invitrogen) was used for subculturing cells and the cells were cultured by shaking under the conditions of 37° C. in the presence of 5% CO2.
(§5) 25 μg of the mutated human CRTH2 with amino acid substitution expression vector prepared in (1) described above was dissolved in 400 μL of Opti-Pro SFM (Invitrogen) and 25 μL of a Freestyle MAX Reagent (Invitrogen) was dissolved in 400 μL of Opti-Pro SFM and each of them were allowed to stand at room temperature for 5 minutes. The two liquids were mixed with each other and allowed to stand at room temperature for 15 minutes. The mixed solution was added to the CHO-S culture solution and the cells were cultured for 24 hours, thereby obtaining cell lines which express mutated human CRTH2 with amino acid substitution.
(§6) The CHO-S cells which express mutated human CRTH2 with amino acid substitution established in (2) were washed with SM, seeded in a 96-well plate such that one well has 2×10^5 cells, and centrifuged at 1700 rpm for 2 minutes. After the supernatant was removed, chLym2, LV0HV1, the anti-human CRTH2 antibody hu19A2 v52, hu8B1 v1, ch3C12, or ch31A5 prepared in Example 9, or a commercially available anti-human CRTH2 antibody BM16 (Santa Cruz) prepared to have a concentration of 10 μg/mL using SM was added thereto to cause a reaction at 4° C. for 1 hour.
(§7) After the cells were washed, goat anti-Human IgG Alexa 647 (Molecular Probes) diluted with SM was added to wells to which chLym2, LV0HV1, hu19A2 v52, hu8B1 v1, ch3C12, or ch31A5 was added and goat anti-Rat IgG Alexa 647 (Molecular Probes) diluted with SM was added to wells to which BM16 was added at a final concentration of 10 μg/mL to cause a reaction at 4° C. for 1 hour.
(§8) After the reaction, the cells were washed and suspended with SM, and the fluorescent intensity was analyzed by flow cytometry (BD Biosciences, FACS CantoII). […]

[2] = target: T2, mutated human CRTH2 with amino acid substitution (Homo sapiens, UniProt Q9Y5Y4, G192A); assay: as above; assay type: binding; conditions: mutant G192A; antibody 10 μg/mL; relative to wild-type = 100%
T2 construct: inserting genes encoding various mutants with amino acid substitution obtained by deleting termination codons; expressed in transfected cells; host or cells: CHO-S cells (Lifetechnologies), transient (phmAG1-MNLinker vector)
T2 sequence (Q9Y5Y4 1-395 G192A): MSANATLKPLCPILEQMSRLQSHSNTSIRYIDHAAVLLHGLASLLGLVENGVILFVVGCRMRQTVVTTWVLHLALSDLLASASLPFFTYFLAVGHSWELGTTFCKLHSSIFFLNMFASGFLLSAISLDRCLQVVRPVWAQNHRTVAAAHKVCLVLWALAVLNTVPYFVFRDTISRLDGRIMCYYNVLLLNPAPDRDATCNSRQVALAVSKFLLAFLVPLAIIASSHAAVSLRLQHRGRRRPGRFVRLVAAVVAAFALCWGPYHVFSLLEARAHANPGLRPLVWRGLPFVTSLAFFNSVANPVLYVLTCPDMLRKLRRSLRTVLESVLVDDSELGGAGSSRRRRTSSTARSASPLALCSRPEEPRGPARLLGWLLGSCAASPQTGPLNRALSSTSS
Method: as §1, §2, §3, §4, §5, §6, §7, §8

B1: LV0HV1: humanized Lym2 antibody, VL LV0 (SEQ ID NO: 33), VH HV1 (SEQ ID NO: 51) (antibody, V domains shown)
VH: EVQLVESGGGVVQPGRSLRLSCAASGFTFSNYYMAWVRQAPGKGLEWVATISYDGSSTYYRDSVKGRFTISRDNAKNSLYLQMNSLRAEDTATYYCARHRGYYYSGAGYFDYWGQGTMVTVSS
VL: DIVMTQTPLSLPVTPGESASISCRSSQSLEYSDGYTYLEWYLQKPGQSPQVLIYGVSNRFSGVPDRFSGSGSGTDFTLKISRVEAEDVGVYYCFQATHDPLTFGQGTKLEIK
In the case of B1, the “reactivity against cells expressing mutated human CRTH2” value [1] is reported as “lost” and the “reactivity against cells expressing mutated human CRTH2” value [2] is reported as “lost”.
